Test results taken from patent US20220333113.

Target: T1, RIG-I CTD (aa 792-925) (Homo sapiens) (UniProt O95786)
T1 sequence: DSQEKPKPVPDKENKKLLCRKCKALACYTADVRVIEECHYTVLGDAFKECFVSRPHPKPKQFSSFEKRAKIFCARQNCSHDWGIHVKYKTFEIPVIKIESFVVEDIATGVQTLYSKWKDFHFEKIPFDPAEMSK
Test: EMSA
Settings: J = 5-(N-3-phenylpropylcarboxyamide)-2'-deoxyuridine (PPdU) at every J (n in listing); SB18T0.01 (5 mM MgCl2) + 20% glycerol, 1 mM DTT, 37 C

Question: Which Kd does the source give for “ATCTCTGTGTCATGTGTTTTAATGTCAGTTTAATGATGAGGGACGGGCAG [14832-55_3]” here?
Answer: 0.0072 nM

Same assay, conditions: J = PPdU at every J; SB18T0.01 + 20% glycerol, 1 mM DTT, 37 C

Question: Which Kd does the source give for “ATCTCTGTGTCATGTGTTTTAATGTCAGTTTAATG [14832-55_10]” here?
Answer: 1.5 nM

Question: How did the Kd turn out when “ATCTCTGTGTCATGTGTTTTAATGTCAGTTTAATGATG [14832-55_9]” was run?
Answer: 0.15 nM

Question: Which Kd does the source give for “ATCTCTGTGTCATGTGTTTTAATGTCAGTTTAATGATGAGGGAC [14832-55_7]” here?
Answer: 0.011 nM

Question: “ATCTCTGTGTCATGTGTTTTAATGTCAGTTTAATGATGAGGGACGGG [14832-55_6]” was tested. Which Kd did it give?
Answer: 0.018 nM

Question: For “CTGTGTCATGTGTTTTAATGTCAGTTTAATGATGAGG [14832-55_12]”, which Kd is on record?
Answer: 0.34 nM

Question: With “GTGTCATGTGTTTTAATGTCAGTTTAATGATGAGGGACGGGCAG [14832-55_5]” as the sequence, how does the Kd read?
Answer: 36 nM

Question: “TCTGTGTCATGTGTTTTAATGTCAGTTTAATGATGA [14832-55_15]” was tested. Which Kd did it give?
Answer: 0.063 nM

Question: Which Kd does the source give for “TCTGTGTCATGTGTTTTAATGTCAGTTTAATGATGAG [14832-55_14]” here?
Answer: 0.066 nM

Question: How did the Kd turn out when “TCTGTGTCATGTGTTTTAATGTCAGTTTAATGATGAGG [14832-55_11]” was run?
Answer: 0.068 nM

Question: How did the Kd turn out when “TCTGTGTCATGTGTTTTAATGTCAGTTTAATGATGAGGGACGGGCAG [14832-55_4]” was run?
Answer: 0.084 nM

Question: For “TGTGTCATGTGTTTTAATGTCAGTTTAATGATGAGG [14832-55_13]”, which Kd is on record?
Answer: 4.3 nM

Target: T2, RIG-I WT full-length (Homo sapiens) (UniProt O95786)
T2 sequence: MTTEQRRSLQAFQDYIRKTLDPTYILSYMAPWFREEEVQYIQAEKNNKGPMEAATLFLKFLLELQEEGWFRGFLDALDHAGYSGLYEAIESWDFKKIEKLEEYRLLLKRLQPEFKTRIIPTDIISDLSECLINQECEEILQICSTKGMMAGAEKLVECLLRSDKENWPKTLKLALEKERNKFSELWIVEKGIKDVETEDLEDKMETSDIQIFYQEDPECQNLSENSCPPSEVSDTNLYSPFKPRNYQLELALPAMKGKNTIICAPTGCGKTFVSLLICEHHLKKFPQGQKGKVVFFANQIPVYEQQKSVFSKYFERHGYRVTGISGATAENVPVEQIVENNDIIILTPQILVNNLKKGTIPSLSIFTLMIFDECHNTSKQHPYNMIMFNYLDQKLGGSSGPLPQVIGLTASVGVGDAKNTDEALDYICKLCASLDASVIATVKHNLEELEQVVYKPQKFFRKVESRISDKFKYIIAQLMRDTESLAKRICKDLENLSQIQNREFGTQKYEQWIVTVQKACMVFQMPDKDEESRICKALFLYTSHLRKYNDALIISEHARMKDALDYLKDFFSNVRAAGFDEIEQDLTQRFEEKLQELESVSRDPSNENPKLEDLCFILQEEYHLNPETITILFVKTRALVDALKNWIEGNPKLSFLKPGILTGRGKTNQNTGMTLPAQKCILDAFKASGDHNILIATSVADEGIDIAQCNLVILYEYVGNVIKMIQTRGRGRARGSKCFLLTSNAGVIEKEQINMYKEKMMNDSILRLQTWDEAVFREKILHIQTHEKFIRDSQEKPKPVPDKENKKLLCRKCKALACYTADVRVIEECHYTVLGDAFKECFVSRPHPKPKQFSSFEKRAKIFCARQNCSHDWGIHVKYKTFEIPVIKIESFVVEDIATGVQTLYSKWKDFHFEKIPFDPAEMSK
Test: filter
Settings: J = 5-(N-3-phenylpropylcarboxyamide)-2'-deoxyuridine (PPdU) at every J (n in listing); SB18T0.01 (5 mM MgCl2) + 1 mM DTT, 37 C

Question: Which Kd does the source give for “ATCTCTGTGTCATGTGTTTTAATGTCAGTTTAATGATGAGGGACGGGCAG [14832-55_3]” here?
Answer: 0.024 nM

Same assay, conditions: J = PPdU at every J; SB18T0.01 + 1 mM DTT, 37 C

Question: For “ATCTCCGGGAACACTGTCTGATTAATGTCTTGTAAGCGGGTTTTCGGCAG [14833-10_3]”, which Kd is on record?
Answer: 12 nM
